Molecular target: T1, Flag-tagged mouse v-ATPase a4 subunit fragment (amino acids 1-388) (mouse, UniProt Q920R6 1-388)
T1 construct: range 1-388; Expressed in 293FT cells from pCMX-Flag/v-ATPase-a4 and used as cell lysate; also called Flag-tagged a4; not shown: Flag tag of vector pCMX-Flag
Test: GST pull-down from 293FT lysate, anti-Flag Western blot
Description: ID. NO. 89 (d2) (SEQ ID NO.:154) was cloned into the prokaryotic expression vector, pGEX-2T (Pharmacia, GE Healthcare), expressed as a GST fusion protein in E. coli and purified with glutathione beads. In parallel, cDNA fragments of mouse v-ATPase-a3 (amino acids 1-385) and v-ATPase a4 (amino acids 1-388) were cloned into the eukaryotic expression vector, pCMX-Flag in order to express a Flag-tagged a3 subunit or a4 subunit in mammalian cells. The pCMX-Flag/v-ATPase-a3 and pCMX-Flag/v-ATPase-a4 recombinant plasmids were transfected in 293FT cells and cell lysates were generated in which, the v-ATPase-a3 and v-ATPase-a4 FLAG-tagged polypeptides were readily detected with an anti-Flag antibody (FIG. 21B, II, upper panel).
In order to measure the interaction between d2 (SEQ. ID. NO. 89) and a3 or a4, equal amounts of 293FT lysates containing either Flag-tagged a3 or a4 were incubated with purified GST or GST-d2 at 4° C. for 90 minutes under mild agitation. After washing, the protein mixes were separated on a SDS-PAGE and transferred to PVDF membrane. […] Clearly, only the a3 fragment could be detected in the GST-d2 reactions compared to the GST reactions indicating a specific interaction between d2 and a3 (FIG. 21B, I-a3, upper panel) but not between d2 and a4 (FIG. 21B, I-a4, upper panel). […]

T1 sequence (Q920R6 1-388): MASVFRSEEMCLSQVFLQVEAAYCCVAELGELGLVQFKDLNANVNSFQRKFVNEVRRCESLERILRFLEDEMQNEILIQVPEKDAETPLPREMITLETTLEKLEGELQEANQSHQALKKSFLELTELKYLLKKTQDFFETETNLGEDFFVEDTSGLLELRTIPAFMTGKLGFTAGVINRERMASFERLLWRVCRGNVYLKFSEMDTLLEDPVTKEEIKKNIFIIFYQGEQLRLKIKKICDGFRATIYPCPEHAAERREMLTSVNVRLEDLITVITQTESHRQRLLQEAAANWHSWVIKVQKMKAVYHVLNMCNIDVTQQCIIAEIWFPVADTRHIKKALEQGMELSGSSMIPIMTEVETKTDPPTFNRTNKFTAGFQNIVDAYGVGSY

B1: GST-d2 (GST fusion protein of the human v-ATPase d2 subunit, polypeptide SEQ ID NO.:154 encoded by SEQ. ID. NO. 89) (other)
chain: not shown
notes: also called AB0179 human orthologue; not shown: glutathione S-transferase (GST) tag of the prokaryotic expression vector pGEX-2T (Pharmacia, GE Healthcare)
Question: Does B1 bind?
Answer: Result: no binding

Source: patent US20090004206A1 (ALETHIA BIOTHERAPEUTICS, published 2009)
